Square brackets hold non-standard residues; d marks the D form. Primed or numbered codes have the meaning given here. Ends that are not written are not given here. * marks the point of attachment. Phe(4-Cl) = N[C@@H](Cc1ccc(Cl)cc1)C(=O)O; Phe(3-F) = N[C@@H](Cc1cccc(F)c1)C(=O)O; Pzc(2) = piperazine-2-carboxylic acid; Phe(2-F) = N[C@@H](Cc1ccccc1F)C(=O)O; Arg(Me) = CNC(=N)NCCC[C@H](N)C(=O)O; Hyp = O=C(O)[C@@H]1C[C@@H](O)CN1; Decanoyl = CCCCCCCCCC(=O)*; Ahx = NCCCCCC(=O)O; azaGly = NNC(=O)O
Target: human OT7T175 (metastin receptor) (human) (UniProt Q969F8)
Assay: cell-based or functional assay

Chain of human OT7T175 (metastin receptor) (human) (Q969F8 whole entry L364H): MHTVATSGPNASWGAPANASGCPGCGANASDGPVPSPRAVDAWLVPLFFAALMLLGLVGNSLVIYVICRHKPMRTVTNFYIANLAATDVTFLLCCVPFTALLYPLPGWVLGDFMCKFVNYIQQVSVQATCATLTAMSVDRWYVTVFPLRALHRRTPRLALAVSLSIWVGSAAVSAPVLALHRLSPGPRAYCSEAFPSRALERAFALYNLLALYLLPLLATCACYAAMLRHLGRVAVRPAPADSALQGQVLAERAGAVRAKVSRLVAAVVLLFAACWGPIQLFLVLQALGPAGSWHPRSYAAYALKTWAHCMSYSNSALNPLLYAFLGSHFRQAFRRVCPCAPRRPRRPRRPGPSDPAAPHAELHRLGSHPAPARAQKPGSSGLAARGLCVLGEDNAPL

| Binder | intracellular Ca ion level-increasing activity [specific activity to Metastin (1-54)] (relative to Metastin (1-54)) |
| --- | --- |
| Ac-[dY]KNT[Phe(2-F)][azaGly]L[Arg(Me)]W-NH2 (SMILES CNC(=N)NCCC[C@H](NC(=O)[C@H](CC(C)C)NC(=O)NNC(=O)[C@H](Cc1ccccc1F)NC(=O)[C@@H](NC(=O)[C@H](CC(N)=O)NC(=O)[C@H](CCCCN)NC(=O)[C@@H](Cc1ccc(O)cc1)NC(C)=O)[C@@H](C)O)C(=O)N[C@@H](Cc1c[nH]c2ccccc12)C(N)=O) [des(1)-Ac-[D-Tyr2,Lys3,Thr5,Phe(2F)6,AzaGly7,Arg(Me)9,Trp10]MS10] | 3.1 |
| Ac-[dY]GNT[Phe(4-Cl)][azaGly]L[Arg(Me)]W-NH2 (SMILES CNC(=N)NCCC[C@H](NC(=O)[C@H](CC(C)C)NC(=O)NNC(=O)[C@H](Cc1ccc(Cl)cc1)NC(=O)[C@@H](NC(=O)[C@H](CC(N)=O)NC(=O)CNC(=O)[C@@H](Cc1ccc(O)cc1)NC(C)=O)[C@@H](C)O)C(=O)N[C@@H](Cc1c[nH]c2ccccc12)C(N)=O) [des(1)-Ac-[D-Tyr2,Gly3,Thr5,Phe(4Cl)6,AzaGly7,Arg(Me)9,Trp10]MS10] | 1.5 |
| Ac-[dY]WNT[Phe(2-F)][azaGly]L[Arg(Me)]W-NH2 (SMILES CNC(=N)NCCC[C@H](NC(=O)[C@H](CC(C)C)NC(=O)NNC(=O)[C@H](Cc1ccccc1F)NC(=O)[C@@H](NC(=O)[C@H](CC(N)=O)NC(=O)[C@H](Cc1c[nH]c2ccccc12)NC(=O)[C@@H](Cc1ccc(O)cc1)NC(C)=O)[C@@H](C)O)C(=O)N[C@@H](Cc1c[nH]c2ccccc12)C(N)=O) [des(1)-Ac-[D-Tyr2,Trp3,Thr5,Phe(2F)6,AzaGly7,Arg(Me)9,Trp10]MS10] | 1.5 |
| Ac-[dY][dW]NT[Phe(2-F)][azaGly]L[Arg(Me)]W-NH2 (SMILES CNC(=N)NCCC[C@H](NC(=O)[C@H](CC(C)C)NC(=O)NNC(=O)[C@H](Cc1ccccc1F)NC(=O)[C@@H](NC(=O)[C@H](CC(N)=O)NC(=O)[C@@H](Cc1c[nH]c2ccccc12)NC(=O)[C@@H](Cc1ccc(O)cc1)NC(C)=O)[C@@H](C)O)C(=O)N[C@@H](Cc1c[nH]c2ccccc12)C(N)=O) [des(1)-Ac-[D-Tyr2,D-Trp3,Thr5,Phe(2F)6,AzaGly7,Arg(Me)9,Trp10]MS10] | 0.5 |
| Ac-[dY]KNT[Phe(4-Cl)][azaGly]L[Arg(Me)]W-NH2 (SMILES CNC(=N)NCCC[C@H](NC(=O)[C@H](CC(C)C)NC(=O)NNC(=O)[C@H](Cc1ccc(Cl)cc1)NC(=O)[C@@H](NC(=O)[C@H](CC(N)=O)NC(=O)[C@H](CCCCN)NC(=O)[C@@H](Cc1ccc(O)cc1)NC(C)=O)[C@@H](C)O)C(=O)N[C@@H](Cc1c[nH]c2ccccc12)C(N)=O) [des(1)-Ac-[D-Tyr2,Lys3,Thr5,Phe(4Cl)6,AzaGly7,Arg(Me)9,Trp10]MS10] | 1.8 |
| Ac-[dY]WNT[Phe(4-Cl)][azaGly]L[Arg(Me)]W-NH2 (SMILES CNC(=N)NCCC[C@H](NC(=O)[C@H](CC(C)C)NC(=O)NNC(=O)[C@H](Cc1ccc(Cl)cc1)NC(=O)[C@@H](NC(=O)[C@H](CC(N)=O)NC(=O)[C@H](Cc1c[nH]c2ccccc12)NC(=O)[C@@H](Cc1ccc(O)cc1)NC(C)=O)[C@@H](C)O)C(=O)N[C@@H](Cc1c[nH]c2ccccc12)C(N)=O) [des(1)-Ac-[D-Tyr2,Trp3,Thr5,Phe(4Cl)6,AzaGly7,Arg(Me)9,Trp10]MS10] | 0.6 |
| Ac-[dY][Hyp]NT[Phe(4-Cl)][azaGly]L[Arg(Me)]W-NH2 (SMILES CNC(=N)NCCC[C@H](NC(=O)[C@H](CC(C)C)NC(=O)NNC(=O)[C@H](Cc1ccc(Cl)cc1)NC(=O)[C@@H](NC(=O)[C@H](CC(N)=O)NC(=O)[C@@H]1C[C@@H](O)CN1C(=O)[C@@H](Cc1ccc(O)cc1)NC(C)=O)[C@@H](C)O)C(=O)N[C@@H](Cc1c[nH]c2ccccc12)C(N)=O) [des(1)-Ac-[D-Tyr2,Hyp3,Thr5,Phe(4Cl)6,AzaGly7,Arg(Me)9,Trp10]MS10] | 1.5 |
| Decanoyl-NTF[azaGly]L[Arg(Me)]W-NH2 (SMILES CCCCCCCCCC(=O)N[C@@H](CC(N)=O)C(=O)N[C@H](C(=O)N[C@@H](Cc1ccccc1)C(=O)NNC(=O)N[C@@H](CC(C)C)C(=O)N[C@@H](CCCNC(=N)NC)C(=O)N[C@@H](Cc1c[nH]c2ccccc12)C(N)=O)[C@@H](C)O) [des(1-3)-Decanoyl-[Thr5,AzaGly7,Arg(Me)9,Trp10]MS10] | 7.2 |
| [Ahx]NTF[azaGly]L[Arg(Me)]W-NH2 (N-terminus assumed; SMILES CNC(=N)NCCC[C@H](NC(=O)[C@H](CC(C)C)NC(=O)NNC(=O)[C@H](Cc1ccccc1)NC(=O)[C@@H](NC(=O)[C@H](CC(N)=O)NC(=O)CCCCCN)[C@@H](C)O)C(=O)N[C@@H](Cc1c[nH]c2ccccc12)C(N)=O) [des(1-2)-[Acp3,Thr5,AzaGly7,Arg(Me)9,Trp10]MS10] | 8.9 |
| Ac-[dY][Hyp]NT[Phe(3-F)][azaGly]L[Arg(Me)]W-NH2 (SMILES CNC(=N)NCCC[C@H](NC(=O)[C@H](CC(C)C)NC(=O)NNC(=O)[C@H](Cc1cccc(F)c1)NC(=O)[C@@H](NC(=O)[C@H](CC(N)=O)NC(=O)[C@@H]1C[C@@H](O)CN1C(=O)[C@@H](Cc1ccc(O)cc1)NC(C)=O)[C@@H](C)O)C(=O)N[C@@H](Cc1c[nH]c2ccccc12)C(N)=O) [des(1)-Ac-[D-Tyr2,Hyp3,Thr5,Phe(3F)6,AzaGly7,Arg(Me)9,Trp10]MS10] | 2.6 |
| Ac-[dY]ENT[Phe(2-F)][azaGly]L[Arg(Me)]W-NH2 (SMILES CNC(=N)NCCC[C@H](NC(=O)[C@H](CC(C)C)NC(=O)NNC(=O)[C@H](Cc1ccccc1F)NC(=O)[C@@H](NC(=O)[C@H](CC(N)=O)NC(=O)[C@H](CCC(=O)O)NC(=O)[C@@H](Cc1ccc(O)cc1)NC(C)=O)[C@@H](C)O)C(=O)N[C@@H](Cc1c[nH]c2ccccc12)C(N)=O) [des(1)-Ac-[D-Tyr2,Glu3,Thr5,Phe(2F)6,AzaGly7,Arg(Me)9,Trp10]MS10] | 3.5 |
| Ac-[dY]ENT[Phe(4-Cl)][azaGly]L[Arg(Me)]W-NH2 (SMILES CNC(=N)NCCC[C@H](NC(=O)[C@H](CC(C)C)NC(=O)NNC(=O)[C@H](Cc1ccc(Cl)cc1)NC(=O)[C@@H](NC(=O)[C@H](CC(N)=O)NC(=O)[C@H](CCC(=O)O)NC(=O)[C@@H](Cc1ccc(O)cc1)NC(C)=O)[C@@H](C)O)C(=O)N[C@@H](Cc1c[nH]c2ccccc12)C(N)=O) [des(1)-Ac-[D-Tyr2,Glu3,Thr5,Phe(4Cl)6,AzaGly7,Arg(Me)9,Trp10]MS10] | 1.9 |
| Ac-[dY]WNT[Phe(3-F)][azaGly]L[Arg(Me)]W-NH2 (SMILES CNC(=N)NCCC[C@H](NC(=O)[C@H](CC(C)C)NC(=O)NNC(=O)[C@H](Cc1cccc(F)c1)NC(=O)[C@@H](NC(=O)[C@H](CC(N)=O)NC(=O)[C@H](Cc1c[nH]c2ccccc12)NC(=O)[C@@H](Cc1ccc(O)cc1)NC(C)=O)[C@@H](C)O)C(=O)N[C@@H](Cc1c[nH]c2ccccc12)C(N)=O) [des(1)-Ac-[D-Tyr2,Trp3,Thr5,Phe(3F)6,AzaGly7,Arg(Me)9,Trp10]MS10] | 0.2 |
| Ac-[dY][Pzc(2)]NTF[azaGly]L[Arg(Me)]W-NH2 [des(1)-Ac-[D-Tyr2,Pzc(2)3,Thr5,AzaGly7,Arg(Me)9,Trp10]MS10] | 1.7 |
| Ac-[dY][dW]NT[Phe(4-Cl)][azaGly]L[Arg(Me)]W-NH2 (SMILES CNC(=N)NCCC[C@H](NC(=O)[C@H](CC(C)C)NC(=O)NNC(=O)[C@H](Cc1ccc(Cl)cc1)NC(=O)[C@@H](NC(=O)[C@H](CC(N)=O)NC(=O)[C@@H](Cc1c[nH]c2ccccc12)NC(=O)[C@@H](Cc1ccc(O)cc1)NC(C)=O)[C@@H](C)O)C(=O)N[C@@H](Cc1c[nH]c2ccccc12)C(N)=O) [des(1)-Ac-[D-Tyr2,D-Trp3,Thr5,Phe(4Cl)6,AzaGly7,Arg(Me)9,Trp10]MS10] | 0.4 |
| Ac-[dY]ENT[Phe(3-F)][azaGly]L[Arg(Me)]W-NH2 (SMILES CNC(=N)NCCC[C@H](NC(=O)[C@H](CC(C)C)NC(=O)NNC(=O)[C@H](Cc1cccc(F)c1)NC(=O)[C@@H](NC(=O)[C@H](CC(N)=O)NC(=O)[C@H](CCC(=O)O)NC(=O)[C@@H](Cc1ccc(O)cc1)NC(C)=O)[C@@H](C)O)C(=O)N[C@@H](Cc1c[nH]c2ccccc12)C(N)=O) [des(1)-Ac-[D-Tyr2,Glu3,Thr5,Phe(3F)6,AzaGly7,Arg(Me)9,Trp10]MS10] | 2.7 |
| Ac-[dY]KNT[Phe(3-F)][azaGly]L[Arg(Me)]W-NH2 (SMILES CNC(=N)NCCC[C@H](NC(=O)[C@H](CC(C)C)NC(=O)NNC(=O)[C@H](Cc1cccc(F)c1)NC(=O)[C@@H](NC(=O)[C@H](CC(N)=O)NC(=O)[C@H](CCCCN)NC(=O)[C@@H](Cc1ccc(O)cc1)NC(C)=O)[C@@H](C)O)C(=O)N[C@@H](Cc1c[nH]c2ccccc12)C(N)=O) [des(1)-Ac-[D-Tyr2,Lys3,Thr5,Phe(3F)6,AzaGly7,Arg(Me)9,Trp10]MS10] | 2.4 |
| Ac-[dY][Hyp]NT[Phe(2-F)][azaGly]L[Arg(Me)]W-NH2 (SMILES CNC(=N)NCCC[C@H](NC(=O)[C@H](CC(C)C)NC(=O)NNC(=O)[C@H](Cc1ccccc1F)NC(=O)[C@@H](NC(=O)[C@H](CC(N)=O)NC(=O)[C@@H]1C[C@@H](O)CN1C(=O)[C@@H](Cc1ccc(O)cc1)NC(C)=O)[C@@H](C)O)C(=O)N[C@@H](Cc1c[nH]c2ccccc12)C(N)=O) [des(1)-Ac-[D-Tyr2,Hyp3,Thr5,Phe(2F)6,AzaGly7,Arg(Me)9,Trp10]MS10] | 6.4 |
| Ac-[dY][dW]NT[Phe(3-F)][azaGly]L[Arg(Me)]W-NH2 (SMILES CNC(=N)NCCC[C@H](NC(=O)[C@H](CC(C)C)NC(=O)NNC(=O)[C@H](Cc1cccc(F)c1)NC(=O)[C@@H](NC(=O)[C@H](CC(N)=O)NC(=O)[C@@H](Cc1c[nH]c2ccccc12)NC(=O)[C@@H](Cc1ccc(O)cc1)NC(C)=O)[C@@H](C)O)C(=O)N[C@@H](Cc1c[nH]c2ccccc12)C(N)=O) [des(1)-Ac-[D-Tyr2,D-Trp3,Thr5,Phe(3F)6,AzaGly7,Arg(Me)9,Trp10]MS10] | 1 |

— patent publication US20090105152A1
